From patent US20130281671

B1: soluble form of yeast Kex2 (amino acids 1-675) (protein)
chain: LVSSQQIPLKDHTSRQYFAVESNETLSRLEEMHPNWKYEHDVRGLPNHYVFSKELLKLGKRSSLEELQGDNNDHILSVHDLFPRNDLFKRLPVPAPPMDSSLLPVKEAEDKLSINDPLFERQWHLVNPSFPGSDINVLDLWYNNITGAGVVAAIVDDGLDYENEDLKDNFCAEGSWDFNDNTNLPKPRLSDDYHGTRCAGEIAAKKGNNFCGVGVGYNAKISGIRILSGDITTEDEAASLIYGLDVNDIYSCSWGPADDGRHLQGPSDLVKKALVKGVTEGRDSKGAIYVFASGNGGTRGDNCNYDGYTNSIYSITIGAIDHKDLHPPYSEGCSAVMAVTYSSGSGEYIHSSDINGRCSNSHGGTSAAAPLAAGVYTLLLEANPNLTWRDVQYLSILSAVGLEKNADGDWRDSAMGKKYSHRYGFGKIDAHKLIEMSKTWENVNAQTWFYLPTLYVSQSTNSTEETLESVITISEKSLQDANFKRIEHVTVTVDIDTEIRGTTTVDLISPAGIISNLGVVRPRDVSSEGFKDWTFMSVAHWGENGVGDWKIKVKTTENGHRIDFHSWRLKLFGESIDSSKTETFVFGNDKEEVEPAATESTVSQYSASSTSISISATSTSSISIGVETSAIPQTTTASTDPDSDPNTPKKLSSPRQ
B2: soluble form of human PC7 (amino acids 1-663) (protein)
chain: LAGTGGPDGQGTGGPSWAVHLESLEGDGEEETLEQQADALAQAAGLVNAGRIGELQGHYLFVQPAGHRPALEVEAIRQQVEAVLAGHEAVRWHSEQRLLRRAKRSVHFNDPKYPQQWHLNNRRSPGRDINVTGVWERNVTGRGVTVVVVDDGVEHTIQDIAPNYSPEGSYDLNSNDPDPMPHPDVENGNHHGTRCAGEIAAVPNNSFCAVGVAYGSRIAGIRVLDGPLTDSMEAVAFNKHYQINDIYSCSWGPDDDGKTVDGPHQLGKAALQHGVIAGRQGFGSIFVVASGNGGQHNDNCNYDGYANSIYTVTIGAVDEEGRMPFYAEECASMLAVTFSGGDKMLRSIVTTDWDLQKGTGCTEGHTGTSAAAPLAAGMIALMLQVRPCLTWRDVQHIIVFTATRYEDRRAEWVTNEAGFSHSHQHGFGLLNAWRLVNAAKIWTSVPYLASYVSPVLKENKAIPQSPRSLEVLWNVSRMDLEMSGLKTLEHVAVTVSITHPRRGSLELKLFCPSGMMSLIGAPRSMDSDPNGFNDWTFSTVRCWGERARGTYRLVIRDVGDESFQVGILRQWQLTLYGSVWSAVDIRDRQRLLESAMSGKYLHDDFALPCPPGLKIPEEDGYTITPN
B3: human PC5 (proprotein convertase subtilisin/kexin type 5), expressed from pSYN-PC5-003 (protein)
chain: RVYTNHWAVKIAGGFPEANRIASKYGFINIGQIGALKDYYHFYHSRTIKRSVISSRGTHSFISMEPKVEWIQQQVVKKRTKRDYDFSRAQSTYFNDPKWPSMWYMHCSDNTHPCQSDMNIEGAWKRGYTGKNIVVTILDDGIERTHPDLMQNYDALASCDVNGNDLDPMPRYDASNENKHGTRCAGEVAAAANNSHCTVGIAFNAKIGGVRMLDGDVTDMVEAKSVSFNPQHVHIYSASWGPDDDGKTVDGPAPLTRQAFENGVRMGRRGLGSVFVWASGNGGRSKDHCSCDGYTNSIYTISISSTAESGKKPWYLEECSSTLATTYSSGESYDKKIITTDLRQRCTDNHTGTSASAPMAAGIIALALEANPFLTWRDVQHVIVRTSRAGHLNANDWKTNAAGFKVSHLYGFGLMDAEAMVMEAEKWTTVPRQHVCVESTDRQIKTIRPNSAVRSIYKASGCSDNPNRHVNYLEHVVVRITITHPRRGDLAIYLTSPSGTRSQLLANRLFDHSMEGFKNWEFMTIHCWGERAAGDWVLEVYDTPSQLRNFKTPGKLKEWSLVLYGTSVQPYSPTNEFPKVERFRYSRVEDPTDDYGTEDYAGPCDPECSEVGCDGPGPDHCNDCLHYYYKLKNNTRICVSSCPPGHYHADKKRCRKCAPNCESCFGSHGDQCMSCKYGYFLNEETNSCVTHCPDGSYQDTKKNLCRKCSENCKTCTEFHNCTECRDGLSLQGSRCSVSCEDGRYFNGQDCQPCHRFCATCAGAGADGCINCTEGYFMEDGRCVQSCSISYYFDHSSENGYKSCKKCDISCLTCNGPGFKNCTSCPSGYLLDLGMCQMGAICKDATEESWAEGGFCMLVKKNNLCQRKVLQQLCCKTCTFQG

Biological target: rFVIIIBDD-Fc-Fc (B-domain deleted Factor VIII-Fc fused to a second Fc through a (GGGGS)4 linker; expressed from pSYN-FVIII-041)
Sequence (chain, as listed by the source, stated change not applied): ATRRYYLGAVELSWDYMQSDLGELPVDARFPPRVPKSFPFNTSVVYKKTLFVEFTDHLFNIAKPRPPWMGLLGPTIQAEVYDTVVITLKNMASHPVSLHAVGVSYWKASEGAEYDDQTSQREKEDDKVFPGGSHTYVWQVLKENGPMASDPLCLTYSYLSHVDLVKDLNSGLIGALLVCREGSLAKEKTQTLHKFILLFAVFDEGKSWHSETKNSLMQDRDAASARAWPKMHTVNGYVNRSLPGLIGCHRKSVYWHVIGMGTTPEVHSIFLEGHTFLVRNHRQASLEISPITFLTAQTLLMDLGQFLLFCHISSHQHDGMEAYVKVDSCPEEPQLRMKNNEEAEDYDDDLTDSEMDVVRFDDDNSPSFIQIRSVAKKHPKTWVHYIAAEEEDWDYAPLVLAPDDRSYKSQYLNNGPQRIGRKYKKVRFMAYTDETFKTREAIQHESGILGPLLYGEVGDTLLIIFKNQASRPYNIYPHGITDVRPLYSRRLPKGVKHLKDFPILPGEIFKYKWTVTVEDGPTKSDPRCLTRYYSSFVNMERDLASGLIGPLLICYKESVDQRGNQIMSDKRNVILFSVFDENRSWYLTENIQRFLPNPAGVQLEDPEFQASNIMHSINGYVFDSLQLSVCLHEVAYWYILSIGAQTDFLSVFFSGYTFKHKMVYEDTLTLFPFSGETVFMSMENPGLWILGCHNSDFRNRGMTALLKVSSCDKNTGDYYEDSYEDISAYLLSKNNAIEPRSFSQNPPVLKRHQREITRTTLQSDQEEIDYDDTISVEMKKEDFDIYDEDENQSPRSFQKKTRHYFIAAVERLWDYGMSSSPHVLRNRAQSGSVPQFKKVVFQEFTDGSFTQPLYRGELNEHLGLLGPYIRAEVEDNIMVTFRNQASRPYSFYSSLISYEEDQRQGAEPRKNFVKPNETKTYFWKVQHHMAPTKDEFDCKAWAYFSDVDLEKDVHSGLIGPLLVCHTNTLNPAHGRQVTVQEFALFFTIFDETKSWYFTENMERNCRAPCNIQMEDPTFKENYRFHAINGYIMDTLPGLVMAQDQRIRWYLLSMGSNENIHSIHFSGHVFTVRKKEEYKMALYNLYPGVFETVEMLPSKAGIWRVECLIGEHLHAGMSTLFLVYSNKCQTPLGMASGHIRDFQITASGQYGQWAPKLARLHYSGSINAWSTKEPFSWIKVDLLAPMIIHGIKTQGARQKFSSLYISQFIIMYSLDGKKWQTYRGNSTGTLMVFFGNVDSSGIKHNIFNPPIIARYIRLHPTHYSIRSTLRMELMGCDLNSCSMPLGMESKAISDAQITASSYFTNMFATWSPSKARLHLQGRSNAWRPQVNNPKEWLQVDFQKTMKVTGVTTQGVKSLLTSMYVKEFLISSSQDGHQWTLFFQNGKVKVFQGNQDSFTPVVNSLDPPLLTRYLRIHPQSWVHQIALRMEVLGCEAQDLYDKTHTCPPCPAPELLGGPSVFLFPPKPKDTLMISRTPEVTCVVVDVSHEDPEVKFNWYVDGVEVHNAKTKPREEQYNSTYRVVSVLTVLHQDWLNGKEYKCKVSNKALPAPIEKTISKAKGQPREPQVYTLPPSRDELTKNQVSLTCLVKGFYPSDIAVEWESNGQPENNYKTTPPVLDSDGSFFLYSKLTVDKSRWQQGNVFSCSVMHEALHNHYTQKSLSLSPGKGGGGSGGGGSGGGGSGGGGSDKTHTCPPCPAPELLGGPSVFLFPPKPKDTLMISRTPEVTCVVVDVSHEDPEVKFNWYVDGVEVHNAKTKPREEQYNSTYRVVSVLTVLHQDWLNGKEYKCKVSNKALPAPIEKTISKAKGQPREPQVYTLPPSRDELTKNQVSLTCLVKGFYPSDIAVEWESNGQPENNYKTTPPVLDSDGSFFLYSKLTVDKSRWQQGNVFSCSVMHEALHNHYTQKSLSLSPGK

Protein	nonprocessed FVIIIFc on SDS-PAGE (SYPRO Ruby and Coomassie staining)
B1	Kex2, PC7, PACE, and PC5 decrease nonprocessed Factor VIII
B2	Kex2, PC7, PACE, and PC5 decrease nonprocessed Factor VIII
B3	Kex2, PC7, PACE, and PC5 decrease nonprocessed Factor VIII
